Assay results from article PMC3016346.

Columns and labels:
Assay in all cases: two-hybrid; Matchmaker Gal4 system 3 in AH109; beta-galactosidase solution assay with ONPG on lysed cells from liquid culture; activity as percent of p53-TAg (100%); mean of at least three experiments
[1] = target: SeMV MP NΔ49 deletion mutant, Gal4 DNA-binding domain fusion (pGBKT7 NΔ49) (Sesbania mosaic virus)
[2] = target: Sesbania mosaic virus movement protein, Gal4 DNA-binding domain fusion (pGBK T7 MP) (Sesbania mosaic virus)
[3] = target: SeMV MP CΔ38 deletion mutant, Gal4 DNA-binding domain fusion (pGBK T7) (Sesbania mosaic virus)

Substance	beta-galactosidase activity, percent of p53-TAg [1] [%]	beta-galactosidase activity, percent of p53-TAg [2] [%]	beta-galactosidase activity, percent of p53-TAg [3] [%]
Sesbania mosaic virus 10-kDa protein (P10), Gal4 activation domain fusion (pGAD T7 P10) (natural protein)	14	97.1	–
Sesbania mosaic virus viral protein genome linked (VPg), Gal4 activation domain fusion (pGAD T7 VPg) (natural protein)	–	95.5	83.1
Sesbania mosaic virus coat protein (CP), Gal4 activation domain fusion (pGAD T7 CP) (natural protein)	–	70	–
